Source: patent US20140087995A1 (published 2014)
Numbered stars: 1 amine (or outer) side, 2 acyl side, 3 side chain; on linkers, the order of the positions; unused ones are H or OH. Bridge positions count the residues as written; N and C are the ends. Side chains are listed from the residue outwards. Ends that are not written are not given here. * marks the point of attachment. C20 diacid = O=C(O)CCCCCCCCCCCCCCCCCCC(=O)*; γGlu = O=C(O)[C@H](CCC(=O)[*:2])N[*:1]

T1: human amylin receptor (amylin 3(a) receptor: human calcitonin receptor with RAMP-3) (human, UniProt P30988 25-474; O60896 24-148, limits assumed)
T1 sequence (looked up) 1: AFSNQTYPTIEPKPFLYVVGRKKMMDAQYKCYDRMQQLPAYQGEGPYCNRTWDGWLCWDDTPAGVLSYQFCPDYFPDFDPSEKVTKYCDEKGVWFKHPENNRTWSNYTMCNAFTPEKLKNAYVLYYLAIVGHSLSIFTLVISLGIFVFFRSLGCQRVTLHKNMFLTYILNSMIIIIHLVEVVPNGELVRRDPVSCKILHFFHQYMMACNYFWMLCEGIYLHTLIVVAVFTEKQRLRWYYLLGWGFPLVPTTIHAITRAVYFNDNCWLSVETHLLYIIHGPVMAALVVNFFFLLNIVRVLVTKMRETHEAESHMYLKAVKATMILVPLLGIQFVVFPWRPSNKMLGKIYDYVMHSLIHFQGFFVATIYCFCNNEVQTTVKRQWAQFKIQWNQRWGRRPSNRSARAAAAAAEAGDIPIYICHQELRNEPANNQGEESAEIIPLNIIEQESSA
T1 sequence (looked up) 2: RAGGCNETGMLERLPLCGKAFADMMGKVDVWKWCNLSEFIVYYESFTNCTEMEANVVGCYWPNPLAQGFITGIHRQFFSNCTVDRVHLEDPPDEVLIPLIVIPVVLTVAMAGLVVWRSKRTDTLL

T2: human calcitonin receptor (human, UniProt P30988 25-474)
T2 sequence (looked up): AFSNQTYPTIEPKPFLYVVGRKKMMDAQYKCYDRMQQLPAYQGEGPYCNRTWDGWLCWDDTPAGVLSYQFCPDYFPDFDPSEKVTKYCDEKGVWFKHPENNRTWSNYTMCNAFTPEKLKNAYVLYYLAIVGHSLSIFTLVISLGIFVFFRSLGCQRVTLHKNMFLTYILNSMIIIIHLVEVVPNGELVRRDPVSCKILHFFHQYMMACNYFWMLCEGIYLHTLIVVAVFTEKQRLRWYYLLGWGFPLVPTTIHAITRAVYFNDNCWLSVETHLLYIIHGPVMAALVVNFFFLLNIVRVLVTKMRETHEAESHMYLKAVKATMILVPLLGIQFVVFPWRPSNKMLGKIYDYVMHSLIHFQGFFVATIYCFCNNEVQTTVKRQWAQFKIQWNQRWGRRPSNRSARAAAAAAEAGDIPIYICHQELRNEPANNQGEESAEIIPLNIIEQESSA

T3: human amylin receptor (amylin 3(a) receptor: human calcitonin receptor co-expressed with RAMP-3) (human, UniProt P30988 25-474; O60896 24-148, limits assumed)
T3 sequence (looked up) 1: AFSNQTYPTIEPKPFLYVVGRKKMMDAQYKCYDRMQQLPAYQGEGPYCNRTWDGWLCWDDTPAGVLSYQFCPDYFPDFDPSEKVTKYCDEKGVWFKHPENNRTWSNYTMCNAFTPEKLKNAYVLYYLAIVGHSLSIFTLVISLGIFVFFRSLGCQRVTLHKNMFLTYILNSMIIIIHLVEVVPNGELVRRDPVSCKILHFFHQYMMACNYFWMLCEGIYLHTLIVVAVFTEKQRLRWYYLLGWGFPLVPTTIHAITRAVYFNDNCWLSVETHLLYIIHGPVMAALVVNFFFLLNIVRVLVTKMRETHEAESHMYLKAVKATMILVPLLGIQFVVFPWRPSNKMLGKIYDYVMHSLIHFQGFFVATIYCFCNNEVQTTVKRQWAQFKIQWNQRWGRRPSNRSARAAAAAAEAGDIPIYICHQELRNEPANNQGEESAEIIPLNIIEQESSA
T3 sequence (looked up) 2: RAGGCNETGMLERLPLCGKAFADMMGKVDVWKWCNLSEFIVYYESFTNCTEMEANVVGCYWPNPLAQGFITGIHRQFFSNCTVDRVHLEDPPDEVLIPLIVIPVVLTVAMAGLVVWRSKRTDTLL

T4: human calcitonin receptor (human, UniProt P30988 25-474)
T4 sequence (looked up): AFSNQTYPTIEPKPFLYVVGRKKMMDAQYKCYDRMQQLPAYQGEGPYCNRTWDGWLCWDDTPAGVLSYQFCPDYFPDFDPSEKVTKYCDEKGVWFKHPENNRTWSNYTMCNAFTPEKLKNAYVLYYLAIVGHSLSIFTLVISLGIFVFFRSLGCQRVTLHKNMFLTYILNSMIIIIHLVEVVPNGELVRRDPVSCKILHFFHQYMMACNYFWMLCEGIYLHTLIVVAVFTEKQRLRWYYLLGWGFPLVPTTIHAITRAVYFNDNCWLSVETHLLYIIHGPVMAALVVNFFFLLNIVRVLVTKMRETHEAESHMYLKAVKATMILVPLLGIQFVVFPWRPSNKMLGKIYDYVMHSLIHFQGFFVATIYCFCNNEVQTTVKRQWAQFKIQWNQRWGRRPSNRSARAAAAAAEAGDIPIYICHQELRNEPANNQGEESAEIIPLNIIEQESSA


Experiments:
[1] = target: T1, human amylin receptor (amylin 3(a) …); test: cell-based or functional assay
[2] = target: T2, human calcitonin receptor; test: cell-based or functional assay
[3] = target: T1, human amylin receptor (amylin 3(a) …); test: SPA competition binding on membranes of BHK cells with human calcitonin receptor + RAMP-3; displacement of 125I-rat amylin (Assay V)
Procedure, shortened: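 One-site competition analysis of SPA counts yielded IC₅₀ as a measure of affinity. Membranes were at 35 ng/μL final; incubation was 120 min at 25° C, pH 7.4.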

[4] = target: T3, human amylin receptor (amylin 3(a) …); test: cell-based or functional assay
[5] = target: T4, human calcitonin receptor; test: cell-based or functional assay; remark: listed apart in the source
[6] = target: T3, human amylin receptor (amylin 3(a) …); test: SPA competition against 125I-rat amylin, membranes of Amylin 3(a)/CRE-luc BHK cells (Assay V)
Procedure: The binding assay was performed using scintillation proximity assay (SPA) beads (RPNQ0001) from PerkinElmer and cell membranes from the Amylin 3(a)/CRE-luc cells (as described in Assay (II)) were used. Membranes were prepared in the following way; the cells were rinsed with PBS and incubated with Versene for approximately 5 min before harvesting. The cells were flushed with PBS and the cell-suspension was centrifuged for 5 min at 1000 rpm. Cells were homogenized (ultrathurrax) in a buffer containing 20 mM Na-HEPES and 10 mM EDTA (pH 7.4) and centrifuged at 20.000 rpm for 15 min. The resulting pellet was resuspended, homogenized and centrifuged (20.000 rpm, 15 min) in a buffer containing 20 mM Na-HEPES and 0.1 mM EDTA (pH 7.4, buffer 2). The resulting pellet was resuspended in buffer 2 and protein concentration was measured (BCA protein Assay, Pierce). The homogenate was kept cold during the whole procedure. The membranes were kept at −80° C. until use. The assay was performed in a 384 well Optiplate (PerkinElmer) in a total volume of 40 ul. Membranes were mixed with SPA beads. Final concentration of membranes 35 ng/μL final and SPA beads was 0.05 mg/well. […] Samples were analyzed on TopCounter™ (Packard). The IC₅₀ was calculated using (one site binding competition analysis) GraphPad Prism5 as a measure of receptor affinity.

hAmylin-R funct. EC50 (pM) [1] | Ratio hCT/hAmylin funct. [2] | hCTR funct. EC50 (pM) [2] | IC50 [3] | hAmylin-R funct. EC50 [4] | Ratio hCT/hAmylin funct. (hCTR EC50 against hAmylin-R EC50) [5] | hCTR funct. EC50 [5] | IC50 [6] | Binder
363 pM | 6.1 ratio | 2220 pM | 0.894 nM | – | – | – | – | {C20 diacid-γGlu}-KCNTATCATQRLAEFLRHSSPNFGAIPSSTNVGSRTY-NH2 (disulfide 2-7; SMILES CC[C@H](C)[C@H](NC(=O)[C@H](C)NC(=O)CNC(=O)[C@H](Cc1ccccc1)NC(=O)[C@H](CC(N)=O)NC(=O)[C@@H]1CCCN1C(=O)[C@H](CO)NC(=O)[C@H](CO)NC(=O)[C@H](Cc1c[nH]cn1)NC(=O)[C@H](CCCNC(=N)N)NC(=O)[C@H](CC(C)C)NC(=O)[C@H](Cc1ccccc1)NC(=O)[C@H](CCC(=O)O)NC(=O)[C@H](C)NC(=O)[C@H](CC(C)C)NC(=O)[C@H](CCCNC(=N)N)NC(=O)[C@H](CCC(N)=O)NC(=O)[C@@H](NC(=O)[C@H](C)NC(=O)[C@@H]1CSSC[C@H](NC(=O)[C@H](CCCCN)NC(=O)CC[C@H](NC(=O)CCCCCCCCCCCCCCCCCCC(=O)O)C(=O)O)C(=O)N[C@@H](CC(N)=O)C(=O)N[C@@H]([C@@H](C)O)C(=O)N[C@@H](C)C(=O)N[C@@H]([C@@H](C)O)C(=O)N1)[C@@H](C)O)C(=O)N1CCC[C@H]1C(=O)N[C@@H](CO)C(=O)N[C@@H](CO)C(=O)N[C@H](C(=O)N[C@@H](CC(N)=O)C(=O)N[C@H](C(=O)NCC(=O)N[C@@H](CO)C(=O)N[C@@H](CCCNC(=N)N)C(=O)N[C@H](C(=O)N[C@@H](Cc1ccc(O)cc1)C(N)=O)[C@@H](C)O)C(C)C)[C@@H](C)O, also called compound 16)
– | – | – | – | 69 pM | 5.2 | 354 pM | 0.09 nM | K([γGlu-C20 diacid])CNTATCATQRLAHFLRHSSPNFGAIPSSTNVGPNTY-NH2 (disulfide 2-7; N-terminus assumed; SMILES CC[C@H](C)[C@H](NC(=O)[C@H](C)NC(=O)CNC(=O)[C@H](Cc1ccccc1)NC(=O)[C@H](CC(N)=O)NC(=O)[C@@H]1CCCN1C(=O)[C@H](CO)NC(=O)[C@H](CO)NC(=O)[C@H](Cc1c[nH]cn1)NC(=O)[C@H](CCCNC(=N)N)NC(=O)[C@H](CC(C)C)NC(=O)[C@H](Cc1ccccc1)NC(=O)[C@H](Cc1c[nH]cn1)NC(=O)[C@H](C)NC(=O)[C@H](CC(C)C)NC(=O)[C@H](CCCNC(=N)N)NC(=O)[C@H](CCC(N)=O)NC(=O)[C@@H](NC(=O)[C@H](C)NC(=O)[C@@H]1CSSC[C@H](NC(=O)[C@@H](N)CCCCNC(=O)CC[C@H](NC(=O)CCCCCCCCCCCCCCCCCCC(=O)O)C(=O)O)C(=O)N[C@@H](CC(N)=O)C(=O)N[C@@H]([C@@H](C)O)C(=O)N[C@@H](C)C(=O)N[C@@H]([C@@H](C)O)C(=O)N1)[C@@H](C)O)C(=O)N1CCC[C@H]1C(=O)N[C@@H](CO)C(=O)N[C@@H](CO)C(=O)N[C@H](C(=O)N[C@@H](CC(N)=O)C(=O)N[C@H](C(=O)NCC(=O)N1CCC[C@H]1C(=O)N[C@@H](CC(N)=O)C(=O)N[C@H](C(=O)N[C@@H](Cc1ccc(O)cc1)C(N)=O)[C@@H](C)O)C(C)C)[C@@H](C)O, also called compound 67)
